Data: PMC4072508 (PLoS Computational Biology, 2014)
FAM = fluorescein group

Assays:
Assay in all cases: fluorescence polarisation; direct binding: 10 nM FAM-labeled peptide, receptor serially diluted; 25°C; 20 mM NaPO4, 50 mM NaCl, 1 mM EDTA, 0.001% Triton X, pH 7.8; single-site binding model
Conditions in all cases: both partners purified
[1] = target: T1, Bcl-2 (human, UniProt P10415 1-239)
T1 construct: human Bcl-2; The c-Myc tag is told for the SPOT arrays; also called c-Myc-tagged receptor; prosurvival protein
T1 sequence (P10415 whole entry): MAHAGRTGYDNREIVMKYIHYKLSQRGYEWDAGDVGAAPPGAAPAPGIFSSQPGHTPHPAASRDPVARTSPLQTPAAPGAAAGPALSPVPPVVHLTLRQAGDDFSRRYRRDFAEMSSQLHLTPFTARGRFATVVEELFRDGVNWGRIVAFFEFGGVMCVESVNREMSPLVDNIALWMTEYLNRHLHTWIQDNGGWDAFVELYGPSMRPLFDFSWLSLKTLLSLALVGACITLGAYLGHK

[2] = target: T2, Bfl-1 (human, UniProt Q16548 1-175)
T2 construct: human Bfl-1; The c-Myc tag is told for the SPOT arrays; also called c-Myc-tagged receptor; prosurvival protein
T2 sequence (looked up): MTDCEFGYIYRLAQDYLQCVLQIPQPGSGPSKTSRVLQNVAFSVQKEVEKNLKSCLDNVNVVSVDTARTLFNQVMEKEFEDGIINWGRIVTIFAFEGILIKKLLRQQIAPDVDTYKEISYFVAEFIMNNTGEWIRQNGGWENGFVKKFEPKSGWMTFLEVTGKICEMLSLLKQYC

[3] = target: T3, Mcl-1 (human, UniProt Q07820 1-350)
T3 construct: human Mcl-1; The c-Myc tag is told for the SPOT arrays; also called c-Myc-tagged receptor; prosurvival protein
T3 sequence (Q07820 whole entry): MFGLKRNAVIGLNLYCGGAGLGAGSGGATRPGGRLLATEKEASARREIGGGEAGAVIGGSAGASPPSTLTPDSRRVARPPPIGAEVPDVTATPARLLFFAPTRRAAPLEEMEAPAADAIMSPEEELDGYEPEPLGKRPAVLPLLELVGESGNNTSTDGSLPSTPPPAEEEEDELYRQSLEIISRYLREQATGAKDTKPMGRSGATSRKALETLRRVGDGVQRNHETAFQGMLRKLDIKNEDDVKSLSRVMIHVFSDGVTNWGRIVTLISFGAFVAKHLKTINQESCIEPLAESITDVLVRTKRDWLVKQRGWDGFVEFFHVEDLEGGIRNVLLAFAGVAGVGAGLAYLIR

[4] = target: T4, Bcl-w (human, UniProt Q92843 1-193)
T4 construct: human Bcl-w; The c-Myc tag is told for the SPOT arrays; also called c-Myc-tagged receptor; prosurvival protein
T4 sequence (looked up): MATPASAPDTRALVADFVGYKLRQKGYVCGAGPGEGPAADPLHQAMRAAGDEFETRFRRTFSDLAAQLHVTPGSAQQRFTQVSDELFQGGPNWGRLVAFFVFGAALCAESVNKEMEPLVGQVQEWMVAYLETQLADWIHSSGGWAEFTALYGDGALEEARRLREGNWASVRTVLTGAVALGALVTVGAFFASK

Binder	Kd [1]	Kd [2]	Kd [3]	Kd [4]
{FAM}-PFKAWGKFGGAFCRYADEMKEIQERQ-NH2 [PURB BH3-like peptide]	40 nM			
{FAM}-IIQMIVELLKRVGDQWEEEQSLA-NH2 [c6orf222 BH3-like peptide]	< 30 nM	< 30 nM	< 30 nM	< 30 nM
